For experiment [1], the target named is T1, human EpCAM extracellular domain (human).
T1 chain: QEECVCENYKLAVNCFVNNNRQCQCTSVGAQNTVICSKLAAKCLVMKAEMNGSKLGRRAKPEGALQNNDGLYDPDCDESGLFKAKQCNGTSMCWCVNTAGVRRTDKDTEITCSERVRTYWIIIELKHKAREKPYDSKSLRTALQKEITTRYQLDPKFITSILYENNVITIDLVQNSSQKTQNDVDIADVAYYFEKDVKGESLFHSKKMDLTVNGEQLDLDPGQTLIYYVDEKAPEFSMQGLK
Put plainly: BLI, 30C, monovalent. A general note: BLI is a label-free optical method that tracks binding on a fibre tip over time.

Experiment [2] concerns the target T2, human EpCAM on DiFi cells (human).
T2 chain: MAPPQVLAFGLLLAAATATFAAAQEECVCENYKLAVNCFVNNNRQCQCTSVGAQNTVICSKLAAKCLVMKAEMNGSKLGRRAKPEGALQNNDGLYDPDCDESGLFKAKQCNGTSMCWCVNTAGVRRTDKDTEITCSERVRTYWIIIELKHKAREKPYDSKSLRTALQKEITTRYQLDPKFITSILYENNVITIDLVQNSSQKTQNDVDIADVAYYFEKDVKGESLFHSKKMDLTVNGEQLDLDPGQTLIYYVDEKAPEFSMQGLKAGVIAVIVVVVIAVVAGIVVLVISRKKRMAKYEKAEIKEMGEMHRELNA
Put plainly: FACS, DiFi cells. A general note: In flow cytometry, cells or beads pass a laser one at a time.

Experiment [3] deals with T3, human FcRn (human, UniProt P55899). The experiment is described as follows: SPR, pH 6.0. A general note: Surface plasmon resonance follows binding to a sensor surface in real time, without labels.
The target of experiment [4] is T3, human FcRn. Put plainly: SPR, pH 7.4.
A further experiment deals with FcγRIIIa F158 (human, UniProt P08637). Put plainly: SPR.
The target of a further experiment is FcγRIIIa V158 (human, UniProt P08637). Put plainly: SPR.
In another experiment the target is T4, FcγRIa (human, UniProt P12314).
T4 chain: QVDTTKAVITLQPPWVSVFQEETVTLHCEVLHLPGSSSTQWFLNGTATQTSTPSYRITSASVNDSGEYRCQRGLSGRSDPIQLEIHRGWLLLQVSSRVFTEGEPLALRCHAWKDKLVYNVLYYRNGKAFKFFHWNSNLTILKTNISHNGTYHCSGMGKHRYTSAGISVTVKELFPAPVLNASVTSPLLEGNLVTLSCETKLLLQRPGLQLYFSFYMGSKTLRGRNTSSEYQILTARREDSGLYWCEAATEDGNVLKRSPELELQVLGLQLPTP
The experiment is described as follows: SPR.

T3 sequence (P55899 24-297, chain 1 of 2): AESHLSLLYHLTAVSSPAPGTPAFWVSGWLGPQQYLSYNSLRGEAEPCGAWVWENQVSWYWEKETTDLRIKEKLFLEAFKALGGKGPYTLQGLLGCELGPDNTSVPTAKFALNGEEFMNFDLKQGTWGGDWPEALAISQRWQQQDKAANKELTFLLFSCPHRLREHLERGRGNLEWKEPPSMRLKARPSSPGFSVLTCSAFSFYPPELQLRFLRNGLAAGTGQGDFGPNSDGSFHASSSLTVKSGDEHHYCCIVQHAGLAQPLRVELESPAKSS
T3 sequence (chain, as listed by the source, chain 2 of 2): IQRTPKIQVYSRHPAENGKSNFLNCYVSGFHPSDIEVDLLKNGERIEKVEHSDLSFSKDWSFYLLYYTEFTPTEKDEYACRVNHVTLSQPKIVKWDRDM
FcγRIIIa F158, sequence (P08637 17-208): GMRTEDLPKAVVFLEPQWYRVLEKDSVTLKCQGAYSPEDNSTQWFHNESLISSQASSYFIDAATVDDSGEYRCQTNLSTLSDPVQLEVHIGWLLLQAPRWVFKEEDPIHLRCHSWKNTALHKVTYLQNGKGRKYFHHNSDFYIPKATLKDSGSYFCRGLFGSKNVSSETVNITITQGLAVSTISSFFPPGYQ
FcγRIIIa V158, sequence (P08637 17-208 F176V): as the sequence (P08637 17-208) above, with F160V counted along it

B1: BisG1-b12-FEAL/EpCAM-A37-FEAR (EpCAM arm) (antibody, V domains shown)
VH: QVQLVQSGAEVKKPGSSVRVSCKASGGTFSSYAISWVRQAPGQGLEWMGGIIPIFGTANYAQKFQGRVTITADESTSTAYMELSSLRSEDTAVYYCARDPFLHYWGQGTLVTVSS
VL: EIELTQSPGTLSLSPGERATLSCRASQTISNNYLAWYQQKRGQAPRLLIYAASSRATGIPDRFSGTGSGTDFTLTISRLEPEDFAVYYCAQGELYPRQFGGGTKLEIK
The Kd is the constant that tells how readily two partners part at equilibrium. High values mean weaker binding, low ones tighter binding. In turn, B1 registered a Kd in experiment [1] of 20 nM.

B2: bsIgG1-b12-FERL/b12-FEAR (antibody)
chain 1: QVQLVQSGAEVKKPGASVKVSCQASGYRFSNFVIHWVRQAPGQRFEWMGWINPYNGNKEFSAKFQDRVTFTADTSANTAYMELRSLRSADTAVYYCARVGPYSWDDSPQDNYYMDVWGKGTTVIVSSASTKGPSVFPLAPSSKSTSGGTAALGCLVKDYFPEPVTVSWNSGALTSGVHTFPAVLQSSGLYSLSSVVTVPSSSLGTQTYICNVNHKPSNTKVDKRVEPKSCDKTHTCPPCPAPEFERGPSVFLFPPKPKDTLMISRTPEVTCVVVDVSHEDPEVKFNWYVDGVEVHNAKTKPREEQYNSTYRVVSVLTVLHQDWLNGKEYKCKVSNKALPAPIEKTISKAKGQPREPQVYTLPPSREEMTKNQVSLTCLVKGFYPSDIAVEWESNGQPENNYKTTPPVLDSDGSFLLYSKLTVDKSRWQQGNVFSCSVMHEALHNHYTQKSLSLSPG
chain 2: EIVLTQSPGTLSLSPGERATFSCRSSHSIRSRRVAWYQHKPGQAPRLVIHGVSNRASGISDRFSGSGSGTDFTLTITRVEPEDFALYYCQVYGASSYTFGQGTKLERKRTVAAPSVFIFPPSDEQLKSGTASVVCLLNNFYPREAKVQWKVDNALQSGNSQESVTEQDSKDSTYSLSSTLTLSKADYEKHKVYACEVTHQGLSSPVTKSFNRGEC
chain 3: QVQLVQSGAEVKKPGASVKVSCQASGYRFSNFVIHWVRQAPGQRFEWMGWINPYNGNKEFSAKFQDRVTFTADTSANTAYMELRSLRSADTAVYYCARVGPYSWDDSPQDNYYMDVWGKGTTVIVSSASTKGPSVFPLAPSSKSTSGGTAALGCLVKDYFPEPVTVSWNSGALTSGVHTFPAVLQSSGLYSLSSVVTVPSSSLGTQTYICNVNHKPSNTKVDKRVEPKSCDKTHTCPPCPAPEFEGGPSVFLFPPKPKDTLMISRTPEVTCVVVAVSHEDPEVKFNWYVDGVEVHNAKTKPREEQYNSTYRVVSVLTVLHQDWLNGKEYKCKVSNKALPAPIEKTISKAKGQPREPQVYTLPPSREEMTKNQVSLTCLVKGFYPSDIAVEWESNGQPENNYKTTPPVLDSDGSFFLYSRLTVDKSRWQQGNVFSCSVMHEALHNHYTQKSLSLSPG
chain 4: EIVLTQSPGTLSLSPGERATFSCRSSHSIRSRRVAWYQHKPGQAPRLVIHGVSNRASGISDRFSGSGSGTDFTLTITRVEPEDFALYYCQVYGASSYTFGQGTKLERKRTVAAPSVFIFPPSDEQLKSGTASVVCLLNNFYPREAKVQWKVDNALQSGNSQESVTEQDSKDSTYSLSSTLTLSKADYEKHKVYACEVTHQGLSSPVTKSFNRGEC
In the case of B2, the binding result in experiment [2] is recorded as “no binding”.

B3: bsIgG1-b12-FERL/CD137-009-HC7LC2-FEAR (antibody)
chain 1: QVQLVQSGAEVKKPGASVKVSCQASGYRFSNFVIHWVRQAPGQRFEWMGWINPYNGNKEFSAKFQDRVTFTADTSANTAYMELRSLRSADTAVYYCARVGPYSWDDSPQDNYYMDVWGKGTTVIVSSASTKGPSVFPLAPSSKSTSGGTAALGCLVKDYFPEPVTVSWNSGALTSGVHTFPAVLQSSGLYSLSSVVTVPSSSLGTQTYICNVNHKPSNTKVDKRVEPKSCDKTHTCPPCPAPEFERGPSVFLFPPKPKDTLMISRTPEVTCVVVDVSHEDPEVKFNWYVDGVEVHNAKTKPREEQYNSTYRVVSVLTVLHQDWLNGKEYKCKVSNKALPAPIEKTISKAKGQPREPQVYTLPPSREEMTKNQVSLTCLVKGFYPSDIAVEWESNGQPENNYKTTPPVLDSDGSFLLYSKLTVDKSRWQQGNVFSCSVMHEALHNHYTQKSLSLSPG
chain 2: EIVLTQSPGTLSLSPGERATFSCRSSHSIRSRRVAWYQHKPGQAPRLVIHGVSNRASGISDRFSGSGSGTDFTLTITRVEPEDFALYYCQVYGASSYTFGQGTKLERKRTVAAPSVFIFPPSDEQLKSGTASVVCLLNNFYPREAKVQWKVDNALQSGNSQESVTEQDSKDSTYSLSSTLTLSKADYEKHKVYACEVTHQGLSSPVTKSFNRGEC
chain 3: EVQLVESGGGLVQPGRSLRLSCTASGFSLNDYWMSWVRQAPGKGLEWVGYIDVGGSLYYAASVKGRFTISRDDSKSIAYLQMNSLKTEDTAVYYCARGGLTYGFDLWGQGTLVTVSSASTKGPSVFPLAPSSKSTSGGTAALGCLVKDYFPEPVTVSWNSGALTSGVHTFPAVLQSSGLYSLSSVVTVPSSSLGTQTYICNVNHKPSNTKVDKRVEPKSCDKTHTCPPCPAPEFEGGPSVFLFPPKPKDTLMISRTPEVTCVVVAVSHEDPEVKFNWYVDGVEVHNAKTKPREEQYNSTYRVVSVLTVLHQDWLNGKEYKCKVSNKALPAPIEKTISKAKGQPREPQVYTLPPSREEMTKNQVSLTCLVKGFYPSDIAVEWESNGQPENNYKTTPPVLDSDGSFFLYSRLTVDKSRWQQGNVFSCSVMHEALHNHYTQKSLSLSPG
chain 4: DIVMTQSPSSLSASVGDRVTITCQASEDISSYLAWYQQKPGKAPKRLIYGASDLASGVPSRFSASGSGTDYTFTISSLQPEDIATYYCHYYATISGLGVAFGGGTKVEIKRTVAAPSVFIFPPSDEQLKSGTASVVCLLNNFYPREAKVQWKVDNALQSGNSQESVTEQDSKDSTYSLSSTLTLSKADYEKHKVYACEVTHQGLSSPVTKSFNRGEC
Consider B3, for which the binding result in experiment [2] is recorded as “no binding”.

B4: BisG2amm-EpCAM-323-A3-AALT/m4-1BB-3H3-AAKR (EpCAM arm) (antibody, V domains shown)
VH: QIQLVQSGPELKKPGETVKISCKASGYTFTNYGMNWVRQASGEGLKWMGWINTYTGEPTYGEDFKGRFAFSLETSASTAYLQINNLKNEDTATYFCARFGNYVDYWGQGTTLTVSS
VL: DIVMTQAAFSNPVTLGTSASISCRSSKNLLHSNGITYLYWYLQKPGQSPHLLIYQMSNLASGVPDRFSSSGSGTDFTLRISRVEAEDVGVYYCAQNLEIPRTFGGGTKLEIKR
B4 yielded a Kd in experiment [1] of 3.2 nM.

B5: IgG1-EpCAM-A37-FERL (antibody)
chain 1: not shown
chain 2: EIELTQSPGTLSLSPGERATLSCRASQTISNNYLAWYQQKRGQAPRLLIYAASSRATGIPDRFSGTGSGTDFTLTISRLEPEDFAVYYCAQGELYPRQFGGGTKLEIKRTVAAPSVFIFPPSDEQLKSGTASVVCLLNNFYPREAKVQWKVDNALQSGNSQESVTEQDSKDSTYSLSSTLTLSKADYEKHKVYACEVTHQGLSSPVTKSFNRGEC
The molecule B5 yielded a Kd in the experiment with human FcRn [3] of 230 nM. Further, the binding result in the experiment with human FcRn [4], with FcγRIIIa F158, with FcγRIIIa V158 and in the experiment with FcγRIa was “no binding” throughout.

The values above are taken from patent publication US20260347498 (published 2026).
